Measured values taken from article PMC12914668.

How the values were obtained:
Assay in all cases: fluorescence polarisation; fluorescence anisotropy; 5 nM OG488-labelled histone monomer held constant, ligase complex titrated; 20 mM Tris-HCl pH 7.5, 10 mM NaCl, 5% glycerol, 1 mM DTT; 25 °C, 1 to 2.5 h; BSA-coated black 96-well plates
[1] = target: Xenopus laevis histone H3, Oregon Green 488 labelled at C110 (Xenopus laevis) (UniProt P84233)
[2] = target: Xenopus laevis histone H4 V22C, Oregon Green 488 labelled (Xenopus laevis) (UniProt P62799)
[3] = target: Xenopus laevis histone H2A K119C, Oregon Green 488 labelled (Xenopus laevis)

Row | Kd [1] | Kd [2] | Kd [3] | Substance
1 | 78.2 nM | 48.4 nM |  | NEDD8-ASB9-ELOB/C-CUL5-RBX2 (neddylated ASB9-CRL5) (from UniProt Q96DX5 1-294; Q15370 1-118; Q15369 1-112; Q93034 1-780; Q9UBF6 1-113; Q15843 1-76) (complex)
2 | 187 nM | 79.7 nM | 341 nM | ASB9-ELOB/C-CUL5-RBX2 (ASB9-CRL5), not neddylated (from UniProt Q96DX5 1-294; Q15370 1-118; Q15369 1-112; Q93034 1-780; Q9UBF6 1-113) (complex)
